The supplement of paper PMC10567573

Test: protein stability index of a GFP-peptide fusion (GPS, HEK-293T) (PSI 1-6); higher = more stable
Conditions: c terminus: native
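Note: lentivirally expressed fusion library, cells FACS-sorted into six equal-sized GFP/DsRed ratio bins, PSI computed from sequencing read fractions per bin weighted by bin number.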

Q: With CQPISFSGFGAEDDDLGGLGLGPR [POLD2 addR] as the protein, how does the protein stability index (parent: NP_006221.1) read?
A: 4.36

Q: Which protein stability index (parent: NP_009172.2) does the source give for LPALFTDLYSQEITAEEAREALPR [SNF8 addR] here?
A: 3.55

Q: Which protein stability index (parent: NP_015628.1) does the source give for EQRNSRWNTVLRAVKAKTHHLEPR [TRPA1 addR] here?
A: 4.5

Q: Which protein stability index (parent: NP_116010.1) does the source give for HSLRAVSTDPPHHDHHDEFCLMPR [BEX2 addR] here?
A: 4.61
